In the supplement of paper PMC5998384:

Legend:
HeLa Kyoto [1] = experiment: solubility in G1/S (NP-40 vs SDS abundance) (log2 ratio); higher = more soluble; conditions: cell cycle stage: G1/S
HeLa Kyoto [2] = experiment: thermal stability score vs G1/S (z-score of summed log2 fold changes over temperatures); higher = more thermally stable than in G1/S
HeLa Kyoto [3] = experiment: melting temperature (median over replicates), in situ; higher = more thermally stable
HeLa Kyoto [4] = experiment: solubility change mitosis vs G1/S (difference of NP-40 vs SDS log2 ratios) (log2 ratio difference); higher = more soluble in mitosis
[5] = cell cycle stage: early G1 (4.5 h after nocodazole release)
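Wherever melting temperature (median over replicates), in situ is given: HeLa Kyoto cells synchronized by double thymidine or nocodazole block, proteins quantified by TMT10plex mass spectrometry, three independent biological replicates.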
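Wherever solubility change mitosis vs G1/S (difference of NP-40 vs SDS log2 ratios) is given: synchronized HeLa Kyoto cells (double thymidine block for G1/S, nocodazole release for mitosis), protein amounts in NP-40 versus SDS lysates quantified by mass spectrometry, three biological replicates.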
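Wherever solubility in G1/S (NP-40 vs SDS abundance) is given: HeLa Kyoto cells arrested at G1/S by double thymidine block, proteins quantified by TMT10plex mass spectrometry in mild NP-40 versus SDS extracts, three biological replicates.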
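Wherever thermal stability score vs G1/S (z-score of summed log2 fold changes over temperatures) is given: synchronized HeLa Kyoto cells, proteins quantified by TMT10plex mass spectrometry, three biological replicates, mitosis taken 0.5 h after nocodazole release, G1/S directly after double thymidine block.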

| Sequence | solubility in G1/S (log2) (HeLa Kyoto [1]) | thermal stability score (HeLa Kyoto [2]; [5]) | thermal stability score (HeLa Kyoto [2]; cell cycle stage: mitosis) | melting temperature (HeLa Kyoto [3]; cell cycle stage: G1/S) [°C] | melting temperature (HeLa Kyoto [3]; cell cycle stage: mitosis) [°C] | solubility change mitosis (log2) (HeLa Kyoto [4]) |
| --- | --- | --- | --- | --- | --- | --- |
| MMGLGNGRRSMKSPPLVLAALVACIIVLGFNYWIASSRSVDLQTRIMELEGRVRRAAAERGAVELKKNEFQGELEKQREQLDKIQSSHNFQLESVNKLYQDEKAVLVNNITTGERLIRVLQDQLKTLQRNYGRLQQDVLQFQKNQTNLERKFSYDLSQCINQMKEVKEQCEERIEEVTKKGNEAVASRDLSENNDQRQQLQALSEPQPRLQAAGLPHTEVPQGKGNVLGNSKSQTPAPSSEVVLDSKRQVEKEETNEIQVVNEEPQRDRLPQEPGREQVVEDRPVGGRGFGGAGELGQTPQVQAALSVSQENPEMEGPERDQLVIPDGQEEEQEAAGEGRNQQKLRGEDDYNMDENEAESETDKQAALAGNDRNIDVFNVEDQKRDTINLLDQREKRNHTL [GOLM1] | -0.0257 | -2.29 | -1.82 | 55.9 | 59.3 | 0.556 |
| MMKLRHKNKKPGEGSKGHKKISWPYPQPAKQNGKKATSKVPSAPHFVHPNDHANREAELKKKWVEEMREKQQAAREQERQKRRTIESYCQDVLRRQEEFEHKEEVLQELNMFPQLDDEATRKAYYKEFRKVVEYSDVILEVLDARDPLGCRCFQMEEAVLRAQGNKKLVLVLNKIDLVPKEVVEKWLDYLRNELPTVAFKASTQHQVKNLNRCSVPVDQASESLLKSKACFGAENLMRVLGNYCRLGEVRTHIRVGVVGLPNVGKSSLINSLKRSRACSVGAVPGITKFMQEVYLDKFIRLLDAPGIVPGPNSEVGTILRNCVHVQKLADPVTPVETILQRCNLEEISNYYGVSGFQTTEHFLTAVAHRLGKKKKGGLYSQEQAAKAVLADWVSGKISFYIPPPATHTLPTHLSAEIVKEMTEVFDIEDTEQANEDTMECLATGESDELLGDTDPLEMEIKLLHSPMTKIADAIENKTTVYKIGDLTGYCTNPNRHQMGWAKRNVDHRPKSNSMVDVCSVDRRSVLQRIMETDPLQQGQALASALKNKKKMQKRADKIASKLSDSMMSALDLSGNADDGVGD [GNL3L] | -0.846 | 3.18 | 4.42 | 48.1 | 50.3 | 0.334 |
| MMLRGNLKQVRIEKNPARLRALESAVGESEPAAAAAMALALAGEPAPPAPAPPEDHPDEEMGFTIDIKSFLKPGEKTYTQRCRLFVGNLPTDITEEDFKRLFERYGEPSEVFINRDRGFGFIRLESRTLAEIAKAELDGTILKSRPLRIRFATHGAALTVKNLSPVVSNELLEQAFSQFGPVEKAVVVVDDRGRATGKGFVEFAAKPPARKALERCGDGAFLLTTTPRPVIVEPMEQFDDEDGLPEKLMQKTQQYHKEREQPPRFAQPGTFEFEYASRWKALDEMEKQQREQVDRNIREAKEKLEAEMEAARHEHQLMLMRQDLMRRQEELRRLEELRNQELQKRKQIQLRHEEEHRRREEEMIRHREQEELRRQQEGFKPNYMENREQEMRMGDMGPRGAINMGDAFSPAPAGNQGPPPMMGMNMNNRATIPGPPMGPGPAMGPEGAANMGTPMMPDNGAVHNDRFPQGPPSQMGSPMGSRTGSETPQAPMSGVGPVSGGPGGFGRGSQGGNFEGPNKRRRY [PSPC1] | 0.205 | 1 | 1.79 | 49.1 | 48.7 | 0.177 |
| MMPMFLTVYLSNNEQHFTEVPVTPETICRDVVDLCKEPGESDCHLAEVWCGSERPVADNERMFDVLQRFGSQRNEVRFFLRHERPPGRDIVSGPRSQDPSLKRNGVKVPGEYRRKENGVNSPRMDLTLAELQEMASRQQQQIEAQQQLLATKEQRLKFLKQQDQRQQQQVAEQEKLKRLKEIAENQEAKLKKVRALKGHVEQKRLSNGKLVEEIEQMNNLFQQKQRELVLAVSKVEELTRQLEMLKNGRIDSHHDNQSAVAELDRLYKELQLRNKLNQEQNAKLQQQRECLNKRNSEVAVMDKRVNELRDRLWKKKAALQQKENLPVSSDGNLPQQAASAPSRVAAVGPYIQSSTMPRMPSRPELLVKPALPDGSLVIQASEGPMKIQTLPNMRSGAASQTKGSKIHPVGPDWSPSNADLFPSQGSASVPQSTGNALDQVDDGEVPLREKEKKVRPFSMFDAVDQSNAPPSFGTLRKNQSSEDILRDAQVANKNVAKVPPPVPTKPKQINLPYFGQTNQPPSDIKPDGSSQQLSTVVPSMGTKPKPAGQQPRVLLSPSIPSVGQDQTLSPGSKQESPPAAAVRPFTPQPSKDTLLPPFRKPQTVAASSIYSMYTQQQAPGKNFQQAVQSALTKTHTRGPHFSSVYGKPVIAAAQNQQQHPENIYSNSQGKPGSPEPETEPVSSVQENHENERIPRPLSPTKLLPFLSNPYRNQSDADLEALRKKLSNAPRPLKKRSSITEPEGPNGPNIQKLLYQRTTIAAMETISVPSYPSKSASVTASSESPVEIQNPYLHVEPEKEVVSLVPESLSPEDVGNASTENSDMPAPSPGLDYEPEGVPDNSPNLQNNPEEPNPEAPHVLDVYLEEYPPYPPPPYPSGEPEGPGEDSVSMRPPEITGQVSLPPGKRTNLRKTGSERIAHGMRVKFNPLALLLDSSLEGEFDLVQRIIYEVDDPSLPNDEGITALHNAVCAGHTEIVKFLVQFGVNVNAADSDGWTPLHCAASCNNVQVCKFLVESGAAVFAMTYSDMQTAADKCEEMEEGYTQCSQFLYGVQEKMGIMNKGVIYALWDYEPQNDDELPMKEGDCMTIIHREDEDEIEWWWARLNDKEGYVPRNLLGLYPRIKPRQRSLA [TP53BP2] | 0.0669 | 0.713 | 1.28 | 48.9 | 48.5 | -0.063 |
| MMPTPVILLKEGTDSSQGIPQLVSNISACQVIAEAVRTTLGPRGMDKLIVDGRGKATISNDGATILKLLDVVHPAAKTLVDIAKSQDAEVGDGTTSVTLLAAEFLKQVKPYVEEGLHPQIIIRAFRTATQLAVNKIKEIAVTVKKADKVEQRKLLEKCAMTALSSKLISQQKAFFAKMVVDAVMMLDDLLQLKMIGIKKVQGGALEDSQLVAGVAFKKTFSYAGFEMQPKKYHNPKIALLNVELELKAEKDNAEIRVHTVEDYQAIVDAEWNILYDKLEKIHHSGAKVVLSKLPIGDVATQYFADRDMFCAGRVPEEDLKRTMMACGGSIQTSVNALSADVLGRCQVFEETQIGGERYNFFTGCPKAKTCTFILRGGAEQFMEETERSLHDAIMIVRRAIKNDSVVAGGGAIEMELSKYLRDYSRTIPGKQQLLIGAYAKALEIIPRQLCDNAGFDATNILNKLRARHAQGGTWYGVDINNEDIADNFEAFVWEPAMVRINALTAASEAACLIVSVDETIKNPRSTVDAPTAAGRGRGRGRPH [CCT7] | 0.162 | -0.684 | -1.22 | 54.1 | 54.2 | -0.0678 |
| MNAEPERKFGVVVVGVGRAGSVRMRDLRNPHPSSAFLNLIGFVSRRELGSIDGVQQISLEDALSSQEVEVAYICSESSSHEDYIRQFLNAGKHVLVEYPMTLSLAAAQELWELAEQKGKVLHEEHVELLMEEFAFLKKEVVGKDLLKGSLLFTAGPLEEERFGFPAFSGISRLTWLVSLFGELSLVSATLEERKEDQYMKMTVCLETEKKSPLSWIEEKGPGLKRNRYLSFHFKSGSLENVPNVGVNKNIFLKDQNIFVQKLLGQFSEKELAAEKKRILHCLGLAEEIQKYCCSRK [BLVRA] | 0.108 | -0.499 | -0.397 | 54.9 | 55 | -0.0957 |
| MNAGPGCEPCTKRPRWGAATTSPAASDARSFPSRQRRVLDPKDAHVQFRVPPSSPACVPGRAGQHRGSATSLVFKQKTITSWMDTKGIKTAESESLDSKENNNTRIESMMSSVQKDNFYQHNVEKLENVSQLSLDKSPTEKSTQYLNQHQTAAMCKWQNEGKHTEQLLESEPQTVTLVPEQFSNANIDRSPQNDDHSDTDSEENRDNQQFLTTVKLANAKQTTEDEQAREAKSHQKCSKSCDPGEDCASCQQDEIDVVPESPLSDVGSEDVGTGPKNDNKLTRQESCLGNSPPFEKESEPESPMDVDNSKNSCQDSEADEETSPGFDEQEDGSSSQTANKPSRFQARDADIEFRKRYSTKGGEVRLHFQFEGGESRTGMNDLNAKLPGNISSLNVECRNSKQHGKKDSKITDHFMRLPKAEDRRKEQWETKHQRTERKIPKYVPPHLSPDKKWLGTPIEEMRRMPRCGIRLPLLRPSANHTVTIRVDLLRAGEVPKPFPTHYKDLWDNKHVKMPCSEQNLYPVEDENGERTAGSRWELIQTALLNKFTRPQNLKDAILKYNVAYSKKWDFTALIDFWDKVLEEAEAQHLYQSILPDMVKIALCLPNICTQPIPLLKQKMNHSITMSQEQIASLLANAFFCTFPRRNAKMKSEYSSYPDINFNRLFEGRSSRKPEKLKTLFCYFRRVTEKKPTGLVTFTRQSLEDFPEWERCEKPLTRLHVTYEGTIEENGQGMLQVDFANRFVGGGVTSAGLVQEEIRFLINPELIISRLFTEVLDHNECLIITGTEQYSEYTGYAETYRWSRSHEDGSERDDWQRRCTEIVAIDALHFRRYLDQFVPEKMRRELNKAYCGFLRPGVSSENLSAVATGNWGCGAFGGDARLKALIQILAAAAAERDVVYFTFGDSELMRDIYSMHIFLTERKLTVGDVYKLLLRYYNEECRNCSTPGPDIKLYPFIYHAVESCAETADHSGQRTGT [PARG] | -0.159 | -0.493 | -0.304 | 50.8 | 50 | -0.0937 |
| MNGRVDYLVTEEEINLTRGPSGLGFNIVGGTDQQYVSNDSGIYVSRIKENGAAALDGRLQEGDKILSVNGQDLKNLLHQDAVDLFRNAGYAVSLRVQHRLQVQNGPIGHRGEGDPSGIPIFMVLVPVFALTMVAAWAFMRYRQQL [SYNJ2BP] | 0.0992 | 1.82 | 1.39 | 51.6 | 51.6 | -0.0614 |
| MNHDFQALALESRGMGELLPTKKFWEPDDSTKDGQKGIFLGDDEWRETAWGASHHSMSQPIMVQRRSGQGFHGNSEVNAILSPRSESGGLGVSMVEYVLSSSPADKLDSRFRKGNFGTRDAETDGPEKGDQKGKASPFEEDQNRDLKQGDDDDSKINGRGLPNGMDADCKDFNRTPGSRQASPTEVVERLGPNTNPSEGLGPLPNPTANKPLVEEFSNPETQNLDAMEQVGLESLQFDYPGNQVPMDSSGATVGLFDYNSQQQLFQRTNALTVQQLTAAQQQQYALAAAQQPHIAGVFSAGLAPAAFVPNPYIISAAPPGTDPYTAAGLAAAATLAGPAVVPPQYYGVPWGVYPANLFQQQAAAAANNTASQQAASQAQPGQQQVLRAGAGQRPLTPNQGQQGQQAESLAAAAAANPTLAFGQGLATGMPGYQVLAPTAYYDQTGALVVGPGARTGLGAPVRLMAPTPVLISSAAAQAAAAAAAGGTASSLTGSTNGLFRPIGTQPPQQQQQQPSTNLQSNSFYGSSSLTNSSQSSSLFSHGPGQPGSTSLGFGSGNSLGAAIGSALSGFGSSVGSSASSSATRRESLSTSSDLYKRSSSSLAPIGQPFYNSLGFSSSPSPIGMPLPSQTPGHSLTPPPSLSSHGSSSSLHLGGLTNGSGRYISAAPGAEAKYRSASSTSSLFSSSSQLFPPSRLRYNRSDIMPSGRSRLLEDFRNNRFPNLQLRDLIGHIVEFSQDQHGSRFIQQKLERATPAERQMVFNEILQAAYQLMTDVFGNYVIQKFFEFGSLDQKLALATRIRGHVLPLALQMYGCRVIQKALESISSDQQVISEMVKELDGHVLKCVKDQNGNHVVQKCIECVQPQSLQFIIDAFKGQVFVLSTHPYGCRVIQRILEHCTAEQTLPILEELHQHTEQLVQDQYGNYVIQHVLEHGRPEDKSKIVSEIRGKVLALSQHKFASNVVEKCVTHASRAERALLIDEVCCQNDGPHSALYTMMKDQYANYVVQKMIDMAEPAQRKIIMHKIRPHITTLRKYTYGKHILAKLEKYYLKNSPDLGPIGGPPNGML [PUM2] | 0.446 | 1.8 | 1.49 | 54 | 50.2 | -0.11 |
